Data reported in PMC9250508 (Nature Communications, 2022).

Key:
[1] = biological target: T1, SARS-CoV-2 BA.1 RBD (residues 319–537, C-terminal AviTag and 8xHisTag) (SARS-CoV-2, Omicron BA.1 (B.1.1.529), strain); assay: BLI; conditions: both partners purified
T1 construct: also called Omicron lineage RBD

[2] = biological target: T2, Purified SARS-CoV-2 BA.2 RBD protein (AcroBiosystem) (SARS-CoV-2, Omicron BA.2, strain); assay: BLI; conditions: both partners purified
T2 construct: also called Omicron lineage RBD; source: bought: AcroBiosystem

[3] = biological target: T3, SARS-CoV-2 spike glycoprotein, Wuhan D614, Δ19 C-terminal truncation, on ExpiCHO-S cells (SARS-CoV-2 BetaCoV/Wuhan-Hu-1/2019 …, UniProt P0DTC2); assay: flow cytometry on cells; conditions: one partner purified
T3 construct: also called Wuhan-D614 spike; Wuhan-1 D614

[4] = biological target: T4, SARS-CoV-2 spike glycoprotein, Omicron BA.1, Δ19 C-terminal truncation, on ExpiCHO-S cells (SARS-CoV-2, Omicron BA.1 (B.1.1.529), strain); assay: flow cytometry on cells; conditions: one partner purified
T4 construct: also called BA.1 spike

[5] = biological target: T5, SARS-CoV-2 spike glycoprotein, Omicron BA.2, Δ19 C-terminal truncation, on ExpiCHO-S cells (SARS-CoV-2, Omicron BA.2, strain); assay: flow cytometry on cells; conditions: one partner purified
T5 construct: also called BA.2 spike

| Binder | binding result [1] | binding result [2] | binding result [3] | binding result [4] | binding result [5] |
| --- | --- | --- | --- | --- | --- |
| AZD1061 Fab (Fab, V domains shown, also called cilgavimab; COV2-2130) VH: EVQLVESGGGLVKPGGSLRLSCAASGFTFRDVWMSWVRQAPGKGLEWVGRIKSKIDGGTTDYAAPVKGRFTISRDDSKNTLYLQMNSLKTEDTAVYYCTTAGSYYYDTVGPGLPEGKFDYWGQGTLVTVSS VL: not shown | binds | binds |  |  |  |
| AZD8895 Fab (Fab, V domains shown, also called tixagevimab; COV2-2196) VH: QMQLVQSGPEVKKPGTSVKVSCKASGFTFMSSAVQWVRQARGQRLEWIGWIVIGSGNTNYAQKFQERVTITRDMSTSTAYMELSSLRSEDTAVYYCAAPYCSSISCNDGFDIWGQGTMVTVSS VL: not shown | binds | binds |  |  |  |
| VIR-7831 (the clinical form of S309-LS) (antibody, V domains shown, also called sotrovimab; clinical lead variant of S309-LS; copies: 2 + 2) VH: not shown VL: EIVLTQSPGTLSLSPGERATLSCRASQTVSSTSLAWYQQKPGQAPRLLIYGASSRATGIPDRFSGSGSGTDFTLTISRLEPEDFAVYYCQQHDTSLTFGGGTKVEIK |  |  | binds | binds | binds |
